Conditions: Methanothermobacter thermautotrophicus (strain ATCC 29096 / DSM 1053 / JCM 10044 / NBRC 100330 / Delta H); pH 7.5; Thermal; DSC; potassium phosphate buffer; reversible: no; whole UniProt chain shown

B1: Geranylgeranylglyceryl phosphate synthase wild type, O26652 (protein)
chain: MKVEDYFHDILRERKIHLTLIDPEEQTPEEAVEIARAAIRGGTDGIMLGGSTTDSSELDNTARALRENIDVPIILFPGNTTGVSRYADAIFFMSLLNSTNPYWIIGAQALGAATVKKMGIEALPMGYLVVEPGGTVGWVGDTKPVPRNKPDIAAAYAMAAEFLGMRLFYLEAGSGAPEHVPEEMIALVKRCTDQILIVGGGIRSGEDAARVAGAGADVVVTGTVVENSDNVEDKIREIVEGMGSV
- unfolding enthalpy (calorimetric): 389 kcal/mol
